From patent US20210060185

Assays:
WT C-His Ana GvpC = molecular target: T1, WT C-His Ana GvpC
T1 chain: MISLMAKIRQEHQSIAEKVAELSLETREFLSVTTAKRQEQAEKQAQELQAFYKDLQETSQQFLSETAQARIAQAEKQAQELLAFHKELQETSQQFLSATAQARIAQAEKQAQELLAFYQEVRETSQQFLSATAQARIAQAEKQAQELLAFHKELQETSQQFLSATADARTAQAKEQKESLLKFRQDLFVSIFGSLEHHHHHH

[1] = molecular target: T2, C-His Ana GvpC with calpain cleavage site (engineered Anabaena flos-aquae GvpC, calpain-sensitive)
T2 chain: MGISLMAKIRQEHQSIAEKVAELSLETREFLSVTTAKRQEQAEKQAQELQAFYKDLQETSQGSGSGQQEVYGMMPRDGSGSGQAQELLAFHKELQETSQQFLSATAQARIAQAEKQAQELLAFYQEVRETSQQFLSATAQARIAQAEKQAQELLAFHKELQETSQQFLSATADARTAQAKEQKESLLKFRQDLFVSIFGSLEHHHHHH

[2] = molecular target: T3, C-His Ana GvpC with TEV cleavage site (engineered Anabaena flos-aquae GvpC, TEV-sensitive)
T3 chain: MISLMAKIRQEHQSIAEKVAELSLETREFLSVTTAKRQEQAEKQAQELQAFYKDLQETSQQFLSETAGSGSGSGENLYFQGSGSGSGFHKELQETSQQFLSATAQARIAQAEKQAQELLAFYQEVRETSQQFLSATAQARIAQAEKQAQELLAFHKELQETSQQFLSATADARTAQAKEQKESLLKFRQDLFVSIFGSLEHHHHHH

B1: calpain-1 from porcine erythrocytes (protein)
chain 1: MAEEVITPVYCTGVSAQVQKLRAKELGLGRHENAIKYLGQDYEQLRAHCLQSGSLFRDEAFPPVPQSLGFKELGPNSSKTYGVKWKRPTELFSNPQFIVDGATRTDICQGALGDCWLLAAIASLTLNDTLLHRVVPHGQSFQNGYAGIFHFQLWQFGEWVDVVVDDLLPTKDGKLVFVHSAQGNEFWSALLEKAYAKVNGSYEALSGGSTSEGFEDFTGGVTEWYELRKAPSDLYSIILKALERGSLLGCSIDISSVLDMEAVTFKKLVKGHAYSVTGAKQVNYQGQMVNLIRMRNPWGEVEWTGAWSDGSSEWNGVDPYQRDQLRVRMEDGEFWMSFRDFLREFTRLEICNLTPDALKSQRVRNWNTTLYEGTWRRGSTAGGCRNYPATFWVNPQFKIRLEETDDPEDDYGGRESGCSFVLALMQKHRRRERRFGRDMETIGFAVYEVPPELVGQPVHLKRDFFLANASRARSEQFINLREVSTRFRLPPGEYVVVPSTFEPNKEGDFVLRFFSEKKAGTQELDDQVQAILPDEQVLSEEEIDENFKALFRQLAGEDMEISVRELRTILNRIISKHKDLRTKGFSLESCRSMVNLMDRDGNGKLGLVEFNILWNRIRNYLSIFRKFDLDKSGSMSAYEMRMAIESAGFKLNKKLFELIITRYSEPDLAVDFDNFVCCLVRLETMFRFFKTLDTDLDGVVTFDLFKWLQLTMFA
chain 2: MFLVNSFLKGGGGGGGGGGGLGGGLGNVLGGLISGAGGGGGGGGGGGGGGGGGGTAMRILGGVISAISEAAAQYNPEPPPPRTHYSNIEANESEEVRQFRRLFAQLAGDDMEVSATELMNILNKVVTRHPDLKTDGFGIDTCRSMVAVMDSDTTGKLGFEEFKYLWNNIKKWQAIYKQFDVDRSGTIGSSELPGAFEAAGFHLNEHLYSMIIRRYSDEGGNMDFDNFISCLVRLDAMFRAFKSLDKDGTGQIQVNIQEWLQLTMYS
cleavage on SDS-PAGE, GV collapse pressure and ultrasound response (WT C-His Ana GvpC): showed no proteolytic cleavage, change in GV collapse pressure or ultrasound response, after incubation with calcium-activated calpain | cleavage on Coomassie-stained SDS-PAGE [1]: Electrophoretic analysis confirmed cleavage and partial dissociation of the cleaved fragments from the GV surface | collapse pressure after exposure to calpain and calcium (FIG. 8B) [1]: ˜290 kPa compared to 336-344 kPa | hydrostatic collapse pressure (pressurized absorbance spectroscopy) [1]: an approximately 50 kPa decrease in hydrostatic collapse pressure in the presence of the enzyme and its ionic activator | nonlinear (x-AM) ultrasound contrast [1]: the maximal nonlinear sensor contrast of GVScalp of approximately 7 dB | nonlinear contrast to noise ratio with calpain and calcium (FIG. 8G) [1]: (+Calp/+Ca^2+) shows a stronger nonlinear ratio (CNR=10.3)

B2: recombinant TEV protease (Tobacco etch virus protease) (protein)
chain: GESLFKGPRDYNPISSTICHLTNESDGHTTSLYGIGFGPFIITNKHLFRRNNGTLLVQSLHGVFKVKNTTTLQQHLIDGRDMIIIRMPKDFPPFPQKLKFREPQREERICLVTTNFQTKSMSSMVSDTSCTFPSSDGIFWKHWIQTKDGQCGSPLVSTRDGFIVGIHSASNFTNTNNYFTSVPKNFMELLTNQEAQQWVSGWRLNADSVLWGGHKVFMSKPEEPFQPVKEATQLMNELVYSQ
hydrostatic collapse pressure, nonlinear acoustic contrast and cleavage on SDS-PAGE (WT C-His Ana GvpC): showed no difference in their hydrostatic collapse pressure or nonlinear acoustic contrast in response to TEV protease (FIGS. 7I-7K), and no wild-type GvpC cleavage was seen upon gel electrophoresis | cleavage on Coomassie-stained SDS-PAGE [2]: gel electrophoresis of GVSTEV after exposure to active TEV resulted in the appearance of the two cleaved GvpC fragments and a significant reduction in the intact GvpC band | hydrostatic collapse pressure midpoint (pressurized absorbance spectroscopy) [2]: ˜70 kPa reduction in its collapse pressure midpoint upon incubation with the active TEV protease | nonlinear (x-AM) ultrasound contrast-to-noise ratio enhancement [2]: a maximal contrast-to-noise ratio (CNR) enhancement of ˜7 dB at an applied acoustic pressure of 438 kPa
